Source: paper PMC5500849, “Cobamide-mediated enzymatic reductive dehalogenation via long-range electron transfer” (Nature Communications, 2017)

Test system: Oc1c(Br)cc(Br)cc1Br
Assay: purified protein
Details: reduced methyl viologen 0.5 mM / Ti(III) citrate 1.4 mM, 100 mM Tris-HCl pH 7.5, 22 °C, no NH4+

Substance: PceA (PceA–Strep) (Sulfurospirillum multivorans)
- Km: 158 µM
- kcat: 8 s⁻¹
